Results from patent publication US20230045418A1 (AJOU UNIVERSITY INDUSTRY ACADEMIC COOPERATION FOUNDATION, published 2023).

B1: TCR-like antibody H9 #1 (IgG form, mouse IgG2a / mouse kappa) (antibody, V domains shown)
VH: EVQLVQSGAEVKKPGSSVKVSCKASGGTFSSYAISWVRQAPGQGLEWMGGIIPIFGTANYAQKFQGRVTITADESTSTAYMELSSLRSEDTAVYYCARGDLYYYDSSGYPLWYMDYWGQGTLVTVSS
VL: ETTLTQSPGTLSLSPGERATLSCRASQSVSSSYLAWYQQKPGQAPRLVIYGASSRATGIPDRFSGSGSGTDFTLTISRLEPEDFAVYYCQDYSTYPAFTFGQGTKLEIR
notes: also called #1 clone in IgG form
B2: TCR-like antibody H9 #38 (IgG form, mouse IgG2a / mouse kappa) (antibody, V domains shown)
VH: EVQLVQSGAEVKKPGSSVKVSCKASGGTFSSYAISWVRQAPGQGLEWMGGIIPIFGTANYAQKFQGRVTITADESTSTAYMELSSLRSEDTAVYYCARGDLYYYDSSGYPWYYMDYWGQGTLVTVSS
VL: ETTLTQSPGTLSLSPGERATLSCRASQSVSSSYLAWYQQKPGQAPRLVIYGASSRATGIPDRFSGSGSGTDFTLTISRLEPEDFAVYYCQHSYAFPGFTFGQGTKLEIR
notes: also called #38 clone in IgG form
B3: TCR-like antibody H9 #1-17 (IgG form, mouse IgG2a / mouse kappa) (antibody, V domains shown)
VH: EVQLVQSGAEVKKPGSSVKVSCKASGGTFSSYAISWVRQAPGQGLEWMGSIIPIFGVAEYAHKFQGRVTITADESTSTAYMELSSLRSEDTAVYYCARGDLYYYDSSGYPLWYMDYWGQGTLVTVSS
VL: ETTLTQSPGTLSLSPGERATLSCRASQSVSSSYLAWYQQKPGQAPRLVIYGASTRPTGIPDRFSGSGSGTDFTLTISRLEPEDFAVYYCQDYSTYPAFTFGQGTKLEIR
B4: TCR-like antibody H9 (chimeric full-length IgG, mouse IgG2a / mouse kappa) (antibody, V domains shown)
VH: EVQLVQSGAEVKKPGSSVKVSCKASGGTFSSYAISWVRQAPGQGLEWMGGIIPIFGTANYAQKFQGRVTITADESTSTAYMELSSLRSEDTAVYYCARGDLYYYDSSGYPRYYFDYWGQGTLVTVSS
VL: ETTLTQSPGTLSLSPGERATLSCRASQSVSSSYLAWYQQKPGQAPRLVIYGASSRATGIPDRFSGSGSGTDFTLTISRLEPEDFAVYYCQHYSTSPGFTFGQGTKLEIR
notes: also called H9 clone; H9 antibody
B5: TCR-like antibody H9 #1-30 (IgG form, mouse IgG2a / mouse kappa) (antibody, V domains shown)
VH: EVQLVQSGAEVKKPGSSVKVSCKASGGTFSSYAISWVRQAPGQGLEWMGSIIPIFGAAEYAQKFQGRVTITADESTSTAYMELSSLRSEDTAVYYCARGDLYYYDSSGYPLWYMDYWGQGTLVTVSS
VL: ETTLTQSPGTLSLSPGERATLSCRASQSVSSSYLAWYQQKPGQAPRLVIYGASSRPRGIPDRFSGSGSGTDFTLTISRLEPEDFAVYYCQDYSTYPAFTFGQGTKLEIR

Tests used:
[1] = target: T1, cell-surface CMVP495-503/HLA-A*02:01 complex (human cytomegalovirus (CMV); human); assay: flow cytometry, MDA-MB-231 pulsed with 4 µM CMVP495-503 peptide, Alexa647 anti-mouse Fc
T1 construct: whole, on cells; also called CMV pp65 peptide complex
Description: After completion of pulsing, the cells were washed with a FACS buffer and then centrifuged at 1300 rpm for 3 minutes to remove the supernatant. […] After washing each sample with 1 ml of a FACS buffer, a F(ab′)2 antibody that specifically recognizes Alexa647 (red fluorescence)-conjugated mouse Fc was diluted 1:600 in 100 μl of a FACS buffer, followed by reaction at 4° C. for 30 minutes.

[2] = target: T2, cell-surface HPVE11-19/HLA-A*02:01 complex (HPV16; human); assay: flow cytometry, MDA-MB-231 pulsed with HPVE11-19 peptide, Alexa647 anti-mouse Fc
T2 construct: whole, on cells

[3] = target: T1, cell-surface CMVP495-503/HLA-A*02:01 …; assay: flow cytometry, cells pulsed with 50 µM CMVP495-503 peptide, Alexa647 anti-mouse Fc
Description: After washing each sample with 1 ml of a FACS buffer, a F(ab′)2 antibody (Jackson ImmunoResearch, USA) that specifically recognizes Alexa647 (red fluorescence)-conjugated mouse Fc (Jackson ImmunoResearch, USA) was diluted 1:600 in 100 μl of a FACS buffer, followed by reaction at 4° C. for 30 minutes.
After completion of pulsing, the cells were washed with a FACS buffer and centrifuged at 1300 rpm for 3 minutes to remove the supernatant. […] After washing each sample with 1 ml of a FACS buffer, a F(ab′)2 antibody that specifically recognizes Alexa647 (red fluorescence)-conjugated mouse Fc was diluted 1:600 in 100 μl of a FACS buffer, followed by reaction at 4° C. for 30 minutes.

[4] = target: T1, cell-surface CMVP495-503/HLA-A*02:01 …; assay: flow cytometry, 500 nM antibody on MDA-MB-231 cells pulsed with 50 µM peptide

| Binder | binding result [1] | binding result [2] | binding result [3] | binding result [4] |
| --- | --- | --- | --- | --- |
| B1 | binds | no binding (tested: 50 nM) | – | – |
| B2 | – | – | binds | – |
| B3 | binds | no binding (tested: 50 nM) | – | – |
| B4 | – | no binding (tested: 50 nM) | – | binds |
| B5 | – | no binding (tested: 50 nM) | – | – |
